The values that follow come from PMC7867654.

First the molecules themselves.
B1: 24 bp LHX6 (dsDNA)
DNA 1: ACGCGCGCCGGGAAATTGAAGCGG
DNA 2: CCGCTTCAATTTCCCGGCGCGCGT
B2: 24 bp ATrich (dsDNA)
DNA 1: TATATAATTATATTATATTAAAAT
DNA 2: ATTTTAATATAATATAATTATATA
B3: 96 bp (dsDNA)
DNA 1: TGAATTAGTGTCAATATCCCTACTTCAATTTCCTAGTATATATTAAGTAGGTAGATGCTCCTAGTACTCTGGGTTTTATTTTCTCAACCACCACCA
DNA 2: TGGTGGTGGTTGAGAAAATAAAACCCAGAGTACTAGGAGCATCTACCTACTTAATATATACTAGGAAATTGAAGTAGGGATATTGACACTAATTCA
B4: 12 bp GC (dsDNA)
DNA 1: GGGCGGCCGCCC
DNA 2: GGGCGGCCGCCC
B5: 96 bp ATrich (dsDNA)
DNA 1: TATATTTTATATATATATAAATTAATATATAATTATATTATATTAAAATTAATATTATATTTAAATTATTATATATATATAAATAATTTAATTATA
DNA 2: TATAATTAAATTATTTATATATATATAATAATTTAAATATAATATTAATTTTAATATAATATAATTATATATTAATTTATATATATATAAAATATA
B6: 36 bp LHX6 (dsDNA)
DNA 1: TCCGCCCGCTCGACGCGCGCCGGGAAATTGAAGCGG
DNA 2: CCGCTTCAATTTCCCGGCGCGCGTCGAGCGGGCGGA
B7: 48 bp LHX6 (dsDNA)
DNA 1: GCGCTAGGAGCATCCGCCCGCTCGACGCGCGCCGGGAAATTGAAGCGG
DNA 2: CCGCTTCAATTTCCCGGCGCGCGTCGAGCGGGCGGATGCTCCTAGCGC
B8: 48 bp ATrich (dsDNA)
DNA 1: ATATTTTATATATATATAAATTAATATATAATTATATTATATTAAAAT
DNA 2: ATTTTAATATAATATAATTATATATTAATTTATATATATATAAAATAT
B9: 36 bp ATrich (dsDNA)
DNA 1: TATATAAATTAATATATAATTATATTATATTAAAAT
DNA 2: ATTTTAATATAATATAATTATATATTAATTTATATA

In one series the target is T1, PRC2-PHF19 (PRC2.1, 5-mer) (Homo sapiens, UniProt Q15910-2;O75530;Q15022;Q09028;Q5T6S3 1-751;1-441;1-739;1-425;1-580). Put plainly: EMSA.
With B1, the binding signal is ~5 fold tighter than 24 bp ATrich; weaker than 48 bp.

Consider B2, for which the binding signal was ~5 fold weaker than 24 bp LHX6.

The target in another series is T1, PRC2-PHF19 (PRC2.1, 5-mer). Put plainly: EMSA. The source holds these as a separate data set.
Regarding B3, the binding result is on record as “binds”.

Regarding B4, the binding result is reported as “no binding”.

Turning to B5, the binding result is “binds”.

Another series addresses PRC2-AEBP2 (PRC2.2, 5-mer) (Homo sapiens, UniProt Q15910-2;O75530;Q15022;Q09028;Q6ZN18 1-751;1-441;1-739;1-425;1-517). Put plainly: EMSA.
For B6, the binding result was “no binding”.

Consider B7, for which the binding result is recorded as “no binding”.

Turning to B1, the binding result is given as “no binding”.

B8: the binding result is “no binding”.

As for B9, the binding result is on record as “no binding”.

In the case of B2, the binding result is “no binding”.
